These results are taken from patent US20260103490A1 (published 2026).

In one experiment the target is FLAG-HA-MBP-myc-ALFA^ST. The experiment can be described thus: dot blot of a dilution series of the MBP fusion.
Experiment [1] deals with T1, ALFA^ST peptide (Ac-PSRLEEELRRRLTEP-Amide).
T1 construct: also called free ALFA^ST peptide; ALFA peptide
T1 peptide: Ac-PSRLEEELRRRLTEP-NH2
Kind of experiment: competitive elution of shGFP2-ALFA^ST from NbALFA^PE resin.

Protocol for FLAG-HA-MBP-myc-ALFA^ST: Membranes were scanned using Odyssey CLx (Li-COR). Quantifications were performed using ImageStudioLight (Li-COR).

B1: NbALFA^ST (NbALFA clone 1G5) (VHH)
VHH: EVQLQESGGGLVQPGGSLRLSCTASGVTISALNAMAMGWYRQAPGERRVMVAAVSERGNAMYRESVQGRFTVTRDFTNKMVSLQMDNLKPEDTAVYYCHVLEDRVDSFHDYWGQGTQVTVSS
notes: Alpaca single-domain antibody; also called ALFA Selector^ST (resin-immobilised form); FluoTag-X2 anti-ALFA (fluorophore-coupled form)
For B1, the “fold lower detection limit than for the other epitope tags” value with FLAG-HA-MBP-myc-ALFA^ST was about 10 fold.

B2: NbALFA^PE (NbALFA mutant for Peptide Elution) (VHH)
VHH: EVQLQESGGGLVQPGGSLRLSCTASGVTISALNAMAMGWYRQAPGEERVMVAAVSSRGNAMYRESVQGRFTVTRDFTNKMVSLQMDNLKPEDTAVYYCHVLEDRVDSFHDYWGQGTQVTVSS
notes: Weaker mutant of NbALFA^ST; used immobilised on agarose (ALFA Selector^PE) or in solution (MST); also called ALFA Selector^PE (resin-immobilised form)
B2: in experiment [1], the binding result was “binds”.
